Test [1] has as its target T1, Anti-PSMA Fab (SEQ ID NOs: 19, 20).
T1 construct: In the phage ELISA the PSMA Fab was biotinylated and captured on neutravidin coated plates; also called 006 PSMA Fab
The test can be described thus: phage binding ELISA; PSMA Fab on plate pre-incubated with PSMA antigen as competitor, anti-M13 HRP detection. (In general: ELISA stands for enzyme-linked immunosorbent assay.)
Method: (§1) Clonal phage were harvested as crude supernatants and screened via standard ELISAs. […] Prior to the addition of clonal phage. wells were incubated with blocking buffer and PSMA antigen or blocking buffer alone. Without washing or aspirating, clonal phage supernatants were then added to the wells and incubated for a short time. Wells were then washed followed by detection of bound phage using a horse radish conjugated anti-M13 antibody.

Test [2] has the same target. The test can be described thus: phage binding ELISA; biotinylated PSMA Fab on neutravidin plate, clonal phage supernatant, anti-M13 HRP detection.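 Further: wells were preincubated with blocking buffer either containing PSMA antigen or without it before crude phage supernatant was added, briefly incubated, then washed prior to detection.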
Method: as §1
Test [3] deals with T2, Anti-PSMA Fab (SEQ ID NOs: 19, 20).
T2 construct: In the phage ELISA the Fab was biotinylated and captured on neutravidin coated plates; also called 006 PSMA Fab
The test can be described thus: phage binding ELISA on captured PSMA Fab, wells pre-incubated with PSMA antigen as competitor.
Method: as §1

For test [4] the target is unchanged. The test can be described thus: phage binding ELISA; biotinylated PSMA Fab captured on neutravidin plate, bound phage detected with anti-M13-HRP.
Method: as §1
In test [5] the target is T3, Anti-PSMA Fab (SEQ ID NOs: 19, 20).
T3 construct: Biotinylated and captured on neutravidin coated plates in the phage ELISA; also called 006 PSMA Fab
The test is described as follows: phage binding ELISA; biotinylated anti-PSMA Fab on neutravidin plate, clonal phage supernatant, anti-M13 HRP detection.
Method: as §1

Test [6] has the same target. The test is described as follows: phage binding ELISA; biotinylated anti-PSMA Fab on neutravidin plate, PSMA antigen as competitor, anti-M13 HRP detection.
Method: as §1

Where no end group is shown, it is not given here.

B1: Phage-2083 (peptide-180 library clone, SEQ ID NO: 2399) (peptide)
peptide: WSNWCTPRWVCKTI
notes: Tested as clonal phage supernatant; not shown: pIII filament protein of the bacteriophage to which the peptide is fused for display
On to B1, for which the “Anti-PSMA Fab signal in the presence of PSMA” value (“Anti-PSMA Fab signal” below) in test [1] was 0.0752. Further, the “Anti-PSMA Fab (SEQ ID NOs: 19, 20) signal” value in test [2] worked out at 1.75.

VETWCTPRWMCEGF (Clonal phage of the Peptide-180 library) [Phage-2093]: the “Anti-PSMA Fab signal” value in test [3] is 0.0881. Also, the “Anti-PSMA Fab (SEQ ID NOs: 19, 20) signal” value in test [4] came out at 1.74.

WGKLCIPEWMCTTQ (Clonal phage of the Peptide-180 library) [Phage-2095]: the “Anti-PSMA Fab signal” value in test [3] turned out to be 0.0687. Further, the “Anti-PSMA Fab (SEQ ID NOs: 19, 20) signal” value in test [4] amounted to 1.74.

For the molecule VDPLCRPAWMCFGM [Phage-2112], the “Anti-PSMA Fab (SEQ ID NOs: 19, 20) signal” value in test [5] was 1.72. Further, in test [6], the “Anti-PSMA Fab signal” value worked out at 0.0801.

With WENWCTPSWMCSVL [Phage-2116], the “Anti-PSMA Fab (SEQ ID NOs: 19, 20) signal” value in test [5] is 1.72. For the same molecule, the “Anti-PSMA Fab signal” value in test [6] was determined as 0.118.

Consider SERWCIPEWMCSMP [Phage-2114], for which the “Anti-PSMA Fab (SEQ ID NOs: 19, 20) signal” value in test [5] amounted to 1.72. Further, in test [6], the “Anti-PSMA Fab signal” value worked out at 0.0625.

For the molecule EWKWCTPSWMCEDA [Phage-2105], in test [5], the “Anti-PSMA Fab (SEQ ID NOs: 19, 20) signal” value was determined as 1.73. The “Anti-PSMA Fab signal” value in test [6] turned out to be 0.0652.

Consider QGIMCIPEWMCSAI (Clonal phage of the Peptide-180 library) [Phage-2097], for which, in test [3], the “Anti-PSMA Fab signal” value turned out to be 0.0664. Further, in test [4], the “Anti-PSMA Fab (SEQ ID NOs: 19, 20) signal” value was 1.73.

Turning to FEKWCIPPWMCAVH [Phage-2110], the “Anti-PSMA Fab (SEQ ID NOs: 19, 20) signal” value in test [5] turned out to be 1.72. For the same molecule, in test [6], the “Anti-PSMA Fab signal” value came to 0.138.

Regarding LENWCKPAWMCRGS [Phage-2109], the “Anti-PSMA Fab (SEQ ID NOs: 19, 20) signal” value in test [5] was found to be 1.72. The “Anti-PSMA Fab signal” value in test [6] amounted to 0.0678.

B2: Phage-2086 (peptide-180 library clone, SEQ ID NO: 2402) (peptide)
peptide: VHQMCQPWWMCWET
notes: as for B1
Consider B2, for which, in test [1], the “Anti-PSMA Fab signal” value came out at 0.0749. Besides, the “Anti-PSMA Fab (SEQ ID NOs: 19, 20) signal” value in test [2] stood at 1.75.

B3: Phage-2091 (peptide)
peptide: ETRWCVPEWMCYGI
modifications: cysteine pairing not given here; also: fused to phage pIII, pIII sequence and linker not given here
notes: Clonal phage of the Peptide-180 library
On to B3, for which the “Anti-PSMA Fab signal” value in test [3] amounted to 0.0943. The “Anti-PSMA Fab (SEQ ID NOs: 19, 20) signal” value in test [4] was found to be 1.74.

On to GVNWCIPDWMCVGM [Phage-2104], for which the “Anti-PSMA Fab (SEQ ID NOs: 19, 20) signal” value in test [5] was found to be 1.73. Further, the “Anti-PSMA Fab signal” value in test [6] was 0.0692.

For the molecule EAKWCIPAWMCSGV (Clonal phage of the Peptide-180 library) [Phage-2101], the “Anti-PSMA Fab signal” value in test [3] worked out at 0.0654. In addition, the “Anti-PSMA Fab (SEQ ID NOs: 19, 20) signal” value in test [4] was determined as 1.73.

As for VVHWCIPSWMCTEN (Clonal phage of the Peptide-180 library) [Phage-2094], the “Anti-PSMA Fab signal” value in test [3] worked out at 0.0941. Moreover, the “Anti-PSMA Fab (SEQ ID NOs: 19, 20) signal” value in test [4] is 1.74.

B4: Phage-2084 (peptide-180 library clone, SEQ ID NO: 2400) (peptide)
peptide: SEHWCVPSWMCYGF
notes: as for B1
B4: in test [1], the “Anti-PSMA Fab signal” value turned out to be 0.0957. Also, in test [2], the “Anti-PSMA Fab (SEQ ID NOs: 19, 20) signal” value was found to be 1.75.

Turning to MNTWCKPAWMCEGL [Phage-2113], the “Anti-PSMA Fab (SEQ ID NOs: 19, 20) signal” value in test [5] worked out at 1.72. Moreover, the “Anti-PSMA Fab signal” value in test [6] turned out to be 0.127.

Consider GEIWCIPRWMCESF [Phage-2115], for which the “Anti-PSMA Fab (SEQ ID NOs: 19, 20) signal” value in test [5] turned out to be 1.72. In addition, the “Anti-PSMA Fab signal” value in test [6] came out at 0.0672.

B5: Phage-2087 (peptide)
peptide: FEKWCIPSWMCSGP
modifications: cysteine pairing not given here; also: fused to phage pIII, pIII sequence and linker not given here
notes: as for B3
As to B5, in test [3], the “Anti-PSMA Fab signal” value was found to be 0.097. In test [4], the “Anti-PSMA Fab (SEQ ID NOs: 19, 20) signal” value worked out at 1.75.

As for SAMLCKPQWMCDGF [Phage-2108], the “Anti-PSMA Fab (SEQ ID NOs: 19, 20) signal” value in test [5] was 1.72. Further, the “Anti-PSMA Fab signal” value in test [6] came to 0.0821.

As for SENWCIPSWMCQGF [Phage-2103], the “Anti-PSMA Fab (SEQ ID NOs: 19, 20) signal” value in test [5] worked out at 1.73. Further, in test [6], the “Anti-PSMA Fab signal” value is 0.0813.

Regarding FEKWCIPAWMCAAV (Clonal phage of the Peptide-180 library) [Phage-2092], in test [3], the “Anti-PSMA Fab signal” value amounted to 0.112. In test [4], the “Anti-PSMA Fab (SEQ ID NOs: 19, 20) signal” value amounted to 1.74.

Turning to VVKWCSPPWMCDFL [Phage-2111], the “Anti-PSMA Fab (SEQ ID NOs: 19, 20) signal” value in test [5] was 1.72. Also, the “Anti-PSMA Fab signal” value in test [6] is 0.0713.

B6: Phage-2099 (peptide)
peptide: LGNWCIPEWMCYGM
modifications: cysteine pairing not given here; also: fused to phage pIII (clonal phage display)
notes: as for B3
Turning to B6, the “Anti-PSMA Fab signal” value in test [3] was 0.078. Moreover, in test [4], the “Anti-PSMA Fab (SEQ ID NOs: 19, 20) signal” value came to 1.73.

B7: Phage-2085 (peptide-180 library clone, SEQ ID NO: 2401) (peptide)
peptide: ESKWCTPPWMCMTD
notes: as for B1
B7: the “Anti-PSMA Fab signal” value in test [1] amounted to 0.0945. In addition, in test [2], the “Anti-PSMA Fab (SEQ ID NOs: 19, 20) signal” value came to 1.75.

As to IPKLCKPSWMCLFY (Clonal phage of the Peptide-180 library) [Phage-2098], in test [3], the “Anti-PSMA Fab signal” value worked out at 0.185. In addition, the “Anti-PSMA Fab (SEQ ID NOs: 19, 20) signal” value in test [4] stood at 1.73.

B8: Phage-2082 (peptide-180 library clone, SEQ ID NO: 2398) (peptide)
peptide: PEKLCIPDWMCHWD
notes: as for B1
As for B8, the “Anti-PSMA Fab signal” value in test [1] was found to be 0.0951. In test [2], the “Anti-PSMA Fab (SEQ ID NOs: 19, 20) signal” value is 1.75.

B9: Phage-2081 (peptide-180 library clone, SEQ ID NO: 2397) (peptide)
peptide: QVNWCIPPWMCAGL
modifications: cysteine pairing not given here; also: fused to phage pIII, pIII sequence and linker not given here
notes: as for B1
For B9, the “Anti-PSMA Fab signal” value in test [1] was 0.0898. For the same molecule, the “Anti-PSMA Fab (SEQ ID NOs: 19, 20) signal” value in test [2] was 1.75.

Take VHNWCIPSWMCEGL [Phage-2107]: the “Anti-PSMA Fab (SEQ ID NOs: 19, 20) signal” value in test [5] was found to be 1.73. Besides, the “Anti-PSMA Fab signal” value in test [6] was 0.0717.

On to QEKWCIPMWMCESL [Phage-2106], for which the “Anti-PSMA Fab (SEQ ID NOs: 19, 20) signal” value in test [5] was 1.73. Further, the “Anti-PSMA Fab signal” value in test [6] was 0.0796.

B10: Phage-2089 (peptide)
peptide: VEKWCIPTWMCQAM
modifications: cysteine pairing not given here; also: fused to phage pIII, pIII sequence and linker not given here
notes: as for B3
B10: the “Anti-PSMA Fab signal” value in test [3] is 0.0844. In test [4], the “Anti-PSMA Fab (SEQ ID NOs: 19, 20) signal” value turned out to be 1.74.

B11: Phage-2088 (peptide)
peptide: VEKWCIPQWMCAEM
modifications: cysteine pairing not given here; also: fused to phage pIII, pIII sequence and linker not given here
notes: as for B3
For B11, the “Anti-PSMA Fab signal” value in test [3] is 0.0696. The “Anti-PSMA Fab (SEQ ID NOs: 19, 20) signal” value in test [4] was determined as 1.74.

PDHWCIPSWMCMSQ (Clonal phage of the Peptide-180 library) [Phage-2096]: in test [3], the “Anti-PSMA Fab signal” value amounted to 0.0974. In addition, the “Anti-PSMA Fab (SEQ ID NOs: 19, 20) signal” value in test [4] turned out to be 1.74.

B12: Phage-2090 (peptide)
peptide: IVKWCVPEWMCEGT
modifications: cysteine pairing not given here; also: fused to phage pIII, pIII sequence and linker not given here
notes: as for B3
Turning to B12, in test [3], the “Anti-PSMA Fab signal” value is 0.0687. For the same molecule, the “Anti-PSMA Fab (SEQ ID NOs: 19, 20) signal” value in test [4] worked out at 1.74.

As to INMWCIPAWMCQNT (Clonal phage of the Peptide-180 library) [Phage-2100], the “Anti-PSMA Fab signal” value in test [3] amounted to 0.128. The “Anti-PSMA Fab (SEQ ID NOs: 19, 20) signal” value in test [4] stood at 1.73.

For MERWCIPEWMCATT [Phage-2102], in test [5], the “Anti-PSMA Fab (SEQ ID NOs: 19, 20) signal” value was 1.73. In test [6], the “Anti-PSMA Fab signal” value turned out to be 0.0637.

The values are drawn from US20260242478A1 (published 2026).
